Biological target: the molecule itself
Assay: cryo-EM structure; ~1.4 µM IR-ECD with ~40 µM insulin (28x molar excess), ~30 min at 4°C, HBS; no symmetry imposed; saturated state, 4.3 Å

B1: human insulin receptor ectodomain protomer IRαβ0 (domain or fragment)
chain 1: HLYPGEVCPGMDIRNNLTRLHELENCSVIEGHLQILLMFKTRPEDFRDLSFPKLIMITDYLLLFRVYGLESLKDLFPNLTVIRGSRLFFNYALVIFEMVHLKELGLYNLMNITRGSVRIEKNNELCYLATIDWSRILDSVEDNYIVLNKDDNEECGDICPGTAKGKTNCPATVINGQFVERCWTHSHCQKVCPTICKSHGCTAEGLCCHSECLGNCSQPDDPTKCVACRNFYLDGRCVETCPPPYYHFQDWRCVNFSFCQDLHHKCKNSRRQGCHQYVIHNNKCIPECPSGYTMNSSNLLCTPCLGPCPKVCHLLEGEKTIDSVTSAQELRGCTVINGSLIINIRGGNNLAAELEANLGLIEEISGYLKIRRSYALVSLSFFRKLRLIRGETLEIGNYSFYALDNQNLRQLWDWSKHNLTITQGKLFFHYNPKLCLSEIHKMEEVSGTKGRQERNDIALKTNGDQASCENELLKFSYIRTSFDKILLRWEPYWPPDFRDLLGFMLFYKEAPYQNVTEFDGQDACGSNSWTVVDIDPPLRSNDPKSQNHPGWLMRGLKPWTQYAIFVKTLVTFSDERRTYGAKSDIIYVQTDATNPSVPLDPISVSNSSSQIILKWKPPSDPNGNITHYLVFWERQAEDSELFELDYCLKGLKLPSRTWSPPFESEDSQKHNQSEYEDSAGECCSCPKTDSQILKELEESSFRKTFEDYLHNVVFVPRPSRKRR
chain 2: SLGDVGNVTVAVPTVAAFPNTSSTSVPTSPEEHRPFEKVVNKESLVISGLRHFTGYRIELQACNQDTPEERCSVAAYVSARTMPEAKADDIVGPVTHEIFENNVVHLMWQEPKEPNGLIVLYEVSYRRYGDEELHLCVSRKHFALERGCRLRGLSPGNYSVRIRATSLAGNGSWTEPTYFYVTDYLDVPSNIAK
modifications: glycosylated | glycosylated
  stoichiometry N: 2

Reference: article PMC7039211, “Cryo-EM structure of the complete and ligand-saturated insulin receptor ectodomain” (The Journal of Cell Biology, 2019)
